Assay results as given in PMC4428629, “The Structure of an NDR/LATS Kinase–Mob Complex Reveals a Novel Kinase–Coactivator System and Substrate Docking Mechanism” (PLoS Biology, 2015).
Non-standard residues stand in square brackets, D forms with d. Residues, ends and D or L forms follow the SMILES beside them. No end group written: not given here. carboxyfluorescein = carboxyfluorescein label; pT = C[C@@H](OP(=O)(O)O)[C@H](N)C(=O)O

Legend:
[1] = tested on: Cbk1^251–756–Mob2 (T743E); test: Peptide kinase assay, WT Cbk1 (T743E); type: biochemical, Saccharomyces cerevisiae; conditions: for 32P incorporation into peptide, Average: Average of Rep 1-4, 100 μM peptide, 50 nM kinase, 40 μM ATP, 1 h
Protocol: (§1) For peptide kinase assays, reactions were performed in the presence of 50 nM Cbk1^251–756–Mob2, 40 μM ATP, 2 mM DTT, 5 mM MnCl2, 2 μCi γ-^32P-ATP, and 100 μM Docktide ([…]) or AKAPtide ([…]). Reactions were initiated by the addition of ATP. Samples were quenched after 1 h by the addition of a 5-μl sample to P81 paper (Whatman) and subsequent submersion in 75 mM phosphoric acid to remove background γ-^32P-ATP. After drying, signal was determined by Čerenkov counting in an LS 6500 scintillation counter (Beckman). Counts per minute was efficiency corrected and converted to femtomoles ^32P followed by conversion to total ATP (labeled and unlabeled). Significance was determined by an unpaired two-tailed Student’s t-test.
(§2) Supplementary file pbio.1002146.s003.xlsx: S3 Data Enzymological characterization of the effects of Cbk1 docking. Assay data from experiments that used γ-^32P-ATP in protein kinase reactions with synthetic substrate peptides from Ssd1 that either contained both the core Cbk1 docking motif and a Cbk1 phosphorylation consensus motif (Docktide) or contained a core Cbk1 docking motif mutated to abrogate binding to the kinase and a Cbk1 consensus motif (AKAPtide). These kinase assays were performed either with Cbk1(T743E) or with Cbk1(Y687A/T743E). The latter construct carries a mutation that eliminates docking motif association with the kinase. (XLSX) Click here for additional data file.

[2] = tested on: Cbk1(Y687A/T743E); test: Peptide kinase assay, Cbk1(Y687A/T743E); type: biochemical, Saccharomyces cerevisiae; conditions: for 32P incorporation into peptide, Average: Average of Rep 1-4, 100 μM peptide, 50 nM kinase, 40 μM ATP, 1 h
Protocol: as §1, §2

[3] = molecular target: T1, Cbk1^Δ730–756–Mob2 (Saccharomyces cerevisiae, UniProt P43563+P53894); test: biochemical; type: binding
T1 construct: His6-Cbk1^251–756 was co-expressed with GST-Mob2 (full length or 45–287); His6 (N); made in house
T1 sequence (P43563 whole entry, stated change not applied, one chain of several): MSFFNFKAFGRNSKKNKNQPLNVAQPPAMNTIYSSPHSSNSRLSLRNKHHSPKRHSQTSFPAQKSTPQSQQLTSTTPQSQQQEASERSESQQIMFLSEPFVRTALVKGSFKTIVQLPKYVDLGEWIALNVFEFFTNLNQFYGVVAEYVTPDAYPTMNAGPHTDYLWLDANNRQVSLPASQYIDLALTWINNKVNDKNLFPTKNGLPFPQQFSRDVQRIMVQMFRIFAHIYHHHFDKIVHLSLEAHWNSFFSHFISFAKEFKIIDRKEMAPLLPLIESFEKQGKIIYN
Source text: ND, not determined. […] (PDF) Click here for additional data file.

[4] = molecular target: pepAce2, carboxyfluorescein-labelled (S. cerevisiae); test: fluorescence polarisation; direct titration: protein titrated into 20 nM carboxyfluorescein-labelled peptide; 20 mM Tris (pH 8.0), 100 mM NaCl, 0.05% Brij35P, 2 mM DTT; quadratic binding equation
[5] = molecular target: T2, Cbk1^352–756 kinase domain (S. cerevisiae, UniProt P53894 352-756); test: pull-down; pull-down of Cbk1^352–756 by bead-bound Ace2 or Ssd1 docking motifs in competition with unbound Ace2^270–290; conditions: both partners purified
T2 construct: source: bacterially expressed, purified (Ni-NTA, glutathione Sepharose); not shown: His6, C-terminal, kept
T2 sequence (looked up): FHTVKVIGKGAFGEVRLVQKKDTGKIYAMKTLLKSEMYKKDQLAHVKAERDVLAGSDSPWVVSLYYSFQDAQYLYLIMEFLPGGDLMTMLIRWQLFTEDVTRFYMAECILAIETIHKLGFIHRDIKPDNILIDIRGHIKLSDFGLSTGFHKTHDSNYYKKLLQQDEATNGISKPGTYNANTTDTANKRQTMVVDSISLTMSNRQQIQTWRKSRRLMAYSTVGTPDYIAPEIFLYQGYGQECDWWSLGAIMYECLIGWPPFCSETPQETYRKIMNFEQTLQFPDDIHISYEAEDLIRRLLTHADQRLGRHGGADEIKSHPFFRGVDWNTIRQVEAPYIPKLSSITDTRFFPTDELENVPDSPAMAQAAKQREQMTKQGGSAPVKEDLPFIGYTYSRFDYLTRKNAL

[6] = molecular target: T3, Cbk1^352–692 kinase domain (S. cerevisiae, UniProt P53894 352-692); test: pull-down; MBP fusions on amylose beads incubated with 1 μM purified Cbk1 on ice for 15 min, washed 3× with PBS; GelCode Blue or immunoblot (His or pS570 antibodies); conditions: both partners purified
T3 construct: also called catalytic domain alone; source: bacterially expressed, purified (Ni-NTA, glutathione Sepharose); not shown: His6, C-terminal, kept
T3 sequence (looked up): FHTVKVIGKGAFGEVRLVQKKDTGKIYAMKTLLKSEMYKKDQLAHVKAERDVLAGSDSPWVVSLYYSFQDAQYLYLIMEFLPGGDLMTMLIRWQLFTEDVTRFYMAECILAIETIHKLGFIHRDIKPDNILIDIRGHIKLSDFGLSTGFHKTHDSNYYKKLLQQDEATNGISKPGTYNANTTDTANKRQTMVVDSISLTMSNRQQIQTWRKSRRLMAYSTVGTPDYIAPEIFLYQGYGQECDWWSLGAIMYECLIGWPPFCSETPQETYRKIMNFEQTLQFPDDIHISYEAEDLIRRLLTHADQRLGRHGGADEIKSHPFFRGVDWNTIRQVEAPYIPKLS

[7] = molecular target: Cbk1(W444A)–Mob2 complex (S. cerevisiae, UniProt P53894 251-756; P43563 1-287, W444A); test: FP
Sequence of Cbk1(W444A)–Mob2 complex (P53894 251-756 W444A, chain 1 of 2, one chain of several): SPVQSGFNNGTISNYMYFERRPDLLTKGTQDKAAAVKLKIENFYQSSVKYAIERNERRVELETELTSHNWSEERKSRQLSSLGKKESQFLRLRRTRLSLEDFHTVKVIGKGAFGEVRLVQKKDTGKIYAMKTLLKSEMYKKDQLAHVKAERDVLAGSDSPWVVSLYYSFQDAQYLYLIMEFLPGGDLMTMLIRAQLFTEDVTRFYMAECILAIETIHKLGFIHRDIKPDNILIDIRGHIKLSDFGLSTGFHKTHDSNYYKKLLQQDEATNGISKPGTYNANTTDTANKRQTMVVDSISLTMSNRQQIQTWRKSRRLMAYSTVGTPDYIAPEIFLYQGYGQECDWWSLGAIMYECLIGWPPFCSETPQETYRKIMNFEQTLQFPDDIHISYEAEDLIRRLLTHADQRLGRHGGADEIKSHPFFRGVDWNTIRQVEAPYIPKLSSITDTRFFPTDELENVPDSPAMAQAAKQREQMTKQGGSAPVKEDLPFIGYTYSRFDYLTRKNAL

[8] = molecular target: Cbk1(Y687A)–Mob2 complex (S. cerevisiae, UniProt P53894 251-756; P43563 1-287, Y687A); test: FP
Sequence of Cbk1(Y687A)–Mob2 complex (P53894 251-756 Y687A, chain 1 of 2, one chain of several): as the sequence (P53894 251-756 W444A, chain 1 of 2, one chain of several) above, with A194W, Y437A counted along it

[9] = molecular target: T4, Cbk1^251–756–Mob2 complex (S. cerevisiae, UniProt P53894 251-756; P43563 1-287); test: FP
T4 chain 1: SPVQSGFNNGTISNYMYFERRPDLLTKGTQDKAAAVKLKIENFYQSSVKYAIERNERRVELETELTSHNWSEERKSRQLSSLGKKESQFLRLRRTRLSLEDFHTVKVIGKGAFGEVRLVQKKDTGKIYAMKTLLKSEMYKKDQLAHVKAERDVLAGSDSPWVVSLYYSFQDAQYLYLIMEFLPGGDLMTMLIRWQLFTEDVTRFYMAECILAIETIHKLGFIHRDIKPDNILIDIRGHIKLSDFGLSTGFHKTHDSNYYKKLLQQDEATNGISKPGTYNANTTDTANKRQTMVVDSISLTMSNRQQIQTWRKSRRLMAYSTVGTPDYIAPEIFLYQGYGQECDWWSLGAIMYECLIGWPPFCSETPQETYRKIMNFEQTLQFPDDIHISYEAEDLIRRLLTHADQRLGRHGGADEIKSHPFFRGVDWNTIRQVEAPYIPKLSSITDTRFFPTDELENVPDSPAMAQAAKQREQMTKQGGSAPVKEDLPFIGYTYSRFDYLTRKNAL
T4 chain 2: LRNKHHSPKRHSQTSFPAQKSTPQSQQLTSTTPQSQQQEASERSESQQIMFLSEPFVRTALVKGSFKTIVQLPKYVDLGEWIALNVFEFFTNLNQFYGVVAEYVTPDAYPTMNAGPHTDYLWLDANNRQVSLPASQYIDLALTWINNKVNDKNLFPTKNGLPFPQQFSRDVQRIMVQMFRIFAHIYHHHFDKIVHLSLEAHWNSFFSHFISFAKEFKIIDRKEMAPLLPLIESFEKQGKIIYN

[10] = molecular target: Cbk1(F447A)–Mob2 complex (S. cerevisiae, UniProt P53894 251-756; P43563 1-287, F447A); test: FP
Sequence of Cbk1(F447A)–Mob2 complex (P53894 251-756 F447A, chain 1 of 2, one chain of several): as the sequence (P53894 251-756 W444A, chain 1 of 2, one chain of several) above, with A194W, F197A counted along it

[11] = molecular target: Cbk1(F699A)–Mob2 complex (S. cerevisiae, UniProt P53894 251-756; P43563 1-287, F699A); test: FP
[12] = molecular target: T5, Cbk1(D475A), residues 251-756, intact hydrophobic motif (S. cerevisiae, UniProt P53894 251-756, D475A); test: crystal structure; Cbk1(D475A) or Cbk1(D475A/T743E) with Mob2, tags cleaved, 4–6 mg/ml, 2 mM AMPPNP, 2 mM MgCl2, 2 mM TCEP; microbatch under oil at 23°C; three crystal forms; conditions: both partners purified
T5 construct: crystallised with AMPPNP; also called Cbk1(HM-T); source: bacterially expressed with Mob2, purified (Ni-NTA, glutathione Sepharose, TEV cleavage, Resource S); not shown: His6, N-terminal, cleaved
T5 sequence (looked up): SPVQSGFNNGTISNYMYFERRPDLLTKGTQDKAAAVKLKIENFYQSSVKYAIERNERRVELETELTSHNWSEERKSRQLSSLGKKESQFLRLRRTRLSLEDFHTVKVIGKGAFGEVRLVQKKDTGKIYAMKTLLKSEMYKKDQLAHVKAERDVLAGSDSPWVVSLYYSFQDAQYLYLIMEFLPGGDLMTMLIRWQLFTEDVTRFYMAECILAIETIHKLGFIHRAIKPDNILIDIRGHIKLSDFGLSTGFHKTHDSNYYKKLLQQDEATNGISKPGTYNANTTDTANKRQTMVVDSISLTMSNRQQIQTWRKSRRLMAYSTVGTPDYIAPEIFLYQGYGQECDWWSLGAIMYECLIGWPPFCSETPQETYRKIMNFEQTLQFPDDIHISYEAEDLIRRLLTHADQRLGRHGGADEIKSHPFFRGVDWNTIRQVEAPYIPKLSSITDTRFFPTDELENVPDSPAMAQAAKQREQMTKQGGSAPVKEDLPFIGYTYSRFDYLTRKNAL

[13] = molecular target: T6, Cbk1(D475A/T743E), residues 251-756 (S. cerevisiae, UniProt P53894 251-756, D475A | T743E); test: as above; conditions: both partners purified
T6 construct: two crystal forms (A, 4.5 Å; B, 3.6 Å); also called Cbk1(HM-E); Cbk1(T743E); source: bacterially expressed with Mob2, purified (Ni-NTA, glutathione Sepharose, TEV cleavage, Resource S); not shown: His6, N-terminal, cleaved
T6 sequence (looked up): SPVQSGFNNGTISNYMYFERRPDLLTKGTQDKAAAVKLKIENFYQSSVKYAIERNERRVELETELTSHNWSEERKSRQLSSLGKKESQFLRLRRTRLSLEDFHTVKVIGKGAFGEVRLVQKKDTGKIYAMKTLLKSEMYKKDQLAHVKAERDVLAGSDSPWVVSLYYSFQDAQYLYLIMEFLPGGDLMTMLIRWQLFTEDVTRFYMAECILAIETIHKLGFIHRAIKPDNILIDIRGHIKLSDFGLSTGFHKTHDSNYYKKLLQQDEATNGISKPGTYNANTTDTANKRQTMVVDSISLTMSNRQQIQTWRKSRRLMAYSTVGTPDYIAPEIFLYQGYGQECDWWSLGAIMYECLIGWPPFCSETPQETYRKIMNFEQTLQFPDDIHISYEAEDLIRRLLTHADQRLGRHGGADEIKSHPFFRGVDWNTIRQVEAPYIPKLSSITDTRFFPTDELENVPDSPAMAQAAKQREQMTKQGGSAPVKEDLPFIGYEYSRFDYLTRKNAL

CDAKAPPPPNAHGGHRRATSN [AKAPtide, Ssd1-based peptide with mutated docking motif AKAP and Cbk1 consensus site]
32P incorporation into peptide, Average [1]: 57.4 fmol
32P incorporation into peptide, Average [2]: 45.5 fmol

CC[C@H](C)[C@H](N)C(=O)NCC(=O)N[C@@H](Cc1ccc(O)cc1)C(=O)N[C@H](C(=O)N[C@@H](Cc1ccc(O)cc1)C(=O)N[C@@H](CO)C(=O)N[C@@H](CCCNC(=N)N)C(=O)N[C@@H](Cc1ccccc1)C(=O)N[C@@H](CC(=O)O)C(=O)N[C@@H](Cc1ccc(O)cc1)C(=O)O)[C@@H](C)O [pepHM] (H-IGYTYSRFDY-OH)
Kd [3]: ~33 µM

CDFKFPPPPNAHGGHRRATSN [Docktide, Ssd1 (210–229)-based peptide with docking motif FKFP and Cbk1 consensus site]
32P incorporation into peptide, Average [1]: 76.8 fmol
effect of WT docking motif on phosphorylation ([1]; relative to peptide with mutant docking motif (AKAPtide)): enhances phosphorylation by WT Cbk1
32P incorporation into peptide, Average [2]: 45.9 fmol
effect of WT docking motif on phosphorylation ([2]; Cbk1(Y687A)): loses this enhancement

Cbk1^251–756–Mob2 complex (from UniProt P53894 251-756; P43563 1-287)
Kd [4]: 6 µM

NAIIVTTNSANGGYQFPPPTL (domain or fragment, S. cerevisiae, UniProt P21192 270-290, looked up) [unbound Ace2^270–290]
binding result [5]: binds

B1: Ace2^270–290 docking motif, MBP fusion (domain or fragment, S. cerevisiae, UniProt P21192 270-290, looked up)
chain: NAIIVTTNSANGGYQFPPPTL
notes: Ace2 of budding yeast, residues 270-290; also called WT Ace2 (two glycine residues)
binding result [5]: binds
binding result [6]: binds

IGY[pT]YSRFDY-carboxyfluorescein [pepHM-P, carboxyfluorescein-labelled]
Kd [7]: 24 µM
Kd [8]: 22 µM
Kd [9]: 20 µM
Kd [10]: 33 µM
Kd [11]: 28 µM

carboxyfluorescein-TTEQSDFKFP [pepSSD1, carboxyfluorescein-labelled]
Kd [7]: 58 µM
Kd [8]: 36 µM
Kd [9]: 6 µM
Kd [11]: 4.9 µM

B2: Mob2, residues 45-287 (natural protein, S. cerevisiae, UniProt P43563 45-287, looked up)
chain: LRNKHHSPKRHSQTSFPAQKSTPQSQQLTSTTPQSQQQEASERSESQQIMFLSEPFVRTALVKGSFKTIVQLPKYVDLGEWIALNVFEFFTNLNQFYGVVAEYVTPDAYPTMNAGPHTDYLWLDANNRQVSLPASQYIDLALTWINNKVNDKNLFPTKNGLPFPQQFSRDVQRIMVQMFRIFAHIYHHHFDKIVHLSLEAHWNSFFSHFISFAKEFKIIDRKEMAPLLPLIESFEKQGKIIYN
notes: the crystallised construct begins at 45 (N-terminal Mob2 region 45-110 not seen in the density); source: bacterially expressed with Cbk1, purified (Ni-NTA, glutathione Sepharose, TEV cleavage, Resource S); not shown: GST, N-terminal, cleaved
binding result [12]: binds
binding result [13]: binds
